Here are results for two molecules from patent US20170015742A1 (published 2017).

Usually IC50 stands for the concentration that inhibits the measured activity by half.

The target of assay [1] is T1, recombinant human VEGF-R2-Fc (human, UniProt P35968 20-764).
T1 construct: also called hVEGFR2-Fc; KDR/Flk-1; not shown: Fc part of the bought fusion protein
Kind of assay: competition ELISA: antibody added to coated hVEGF-R2-Fc, then biotin-hVEGF165. How it is done:
To identify molecules which could block the binding of VEGF-R2 (KDR/Flk-1) to hVEGF₁₆₅, a competition ELISA was performed. […] Plates were then washed four times with wash buffer (TBS, 0.05% Tween-20) and blocked with Superblock blocking buffer (Thermo Scientific, cat#37535). […] The samples were added to wells and incubated for 30 minutes at 25° C. with shaking. […] Following incubation, plates were washed four times with wash buffer. Streptavidin-polyHRP-40 (Fitzgerald cat#65r-s104phrp) was diluted in assay diluent (10% Superblock containing 0.05% surfactamps) and added to plates (50 μL) for 45 minutes at 25° C. with shaking. Plates were washed four times with wash buffer and developed with the addition of Enhanced K-blue TMB substrate (Neogen cat#308177). The reaction was stopped with 2N sulfuric acid (VWR, cat# BDH3500-1) and the absorbance was read at 450 nm-570 nm. A decrease in observed optical density indicates the test molecule is blocking the human VEGF-R2-Fc binding to hVEGF₁₆₅. Data was analyzed using Softmax Pro 4.8 software and IC₅₀ values calculated using a sigmoidal dose response (variable slope) fit in GraphPad Prism 5.
For orientation: In an ELISA, binding on a coated surface is turned into a signal by an enzyme label.

The target in a further assay is T2, mouse VEGF (PR-1578904) (mouse, UniProt Q00731 205-392).
T2 construct: also called mVEGF164
T2 chain: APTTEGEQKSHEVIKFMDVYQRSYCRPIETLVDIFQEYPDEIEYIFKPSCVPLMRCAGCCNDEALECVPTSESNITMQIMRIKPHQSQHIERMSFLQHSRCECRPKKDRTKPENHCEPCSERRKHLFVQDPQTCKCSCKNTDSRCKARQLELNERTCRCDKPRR
Briefly: SPR (Biacore), mAb captured by anti-human Fc, antigen injected. As for the experimental part: Unreacted moieties on the biosensor surface were blocked with ethanolamine. For kinetic analysis, rate equations derived from the 1:1 Langmuir binding model were fitted simultaneously to multiple antigen injections (using global fit analysis) with the use of Scrubber 2 (BioLogic Software), Biacore Biaevaluation 4.0.1 software or Biacore T100 Evaluation software. Purified antibodies or DVD-Ig molecules were diluted in running buffer for capture across goat anti-human Fc reaction surfaces. Antibodies or DVD-Ig molecules to be captured as a ligand (1 μg/ml) were injected over reaction matrices at a flow rate of 10 μl/minute. During the assay, all measurements were referenced against the capture surface alone (i.e., with no captured antibody or DVD-Ig molecule). […] The equilibrium dissociation constant KD (M) of the reaction between antibodies and the target antigen was then calculated from the kinetic rate constants by the following formula: KD=Koff/Kₒₙ. Binding was recorded as a function of time and kinetic rate constants were calculated. In this assay, on-rates as fast as 10⁶M⁻¹s⁻¹ and off-rates as slow as 10⁻⁶ s⁻¹ could be measured.
(Surface plasmon resonance follows binding to a sensor surface in real time, without labels.)

T1 sequence (P35968 20-764 limits assumed): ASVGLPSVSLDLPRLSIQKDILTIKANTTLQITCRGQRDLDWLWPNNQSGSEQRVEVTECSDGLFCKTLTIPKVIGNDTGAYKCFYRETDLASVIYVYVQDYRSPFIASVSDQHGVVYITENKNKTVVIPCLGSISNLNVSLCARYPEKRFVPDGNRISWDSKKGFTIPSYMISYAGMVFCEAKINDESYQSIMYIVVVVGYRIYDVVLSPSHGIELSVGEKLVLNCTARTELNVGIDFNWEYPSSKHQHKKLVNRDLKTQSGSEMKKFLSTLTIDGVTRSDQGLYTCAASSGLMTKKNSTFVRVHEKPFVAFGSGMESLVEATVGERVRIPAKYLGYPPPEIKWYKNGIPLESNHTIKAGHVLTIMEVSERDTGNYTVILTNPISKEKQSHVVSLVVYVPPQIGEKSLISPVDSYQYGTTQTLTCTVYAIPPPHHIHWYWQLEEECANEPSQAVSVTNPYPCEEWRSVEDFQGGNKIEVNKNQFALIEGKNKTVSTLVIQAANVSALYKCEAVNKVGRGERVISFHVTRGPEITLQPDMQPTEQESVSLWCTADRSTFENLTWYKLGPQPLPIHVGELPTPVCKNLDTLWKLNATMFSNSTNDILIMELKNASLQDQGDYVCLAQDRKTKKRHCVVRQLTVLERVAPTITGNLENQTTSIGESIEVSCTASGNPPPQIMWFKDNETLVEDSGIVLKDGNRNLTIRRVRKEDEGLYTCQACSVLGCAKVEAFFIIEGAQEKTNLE

B1: chBCU-6B1-G6 (antibody, V domains shown)
VH: QIQLVQSGPELKKPGESVKISCKASGYTFTNYGMYWVKQAPGQALQFMGWINTETGQPTYADDFKGRFVFFLETSASTAYLQINNLKNEDMATYFCARLGNNYGIWFAYWGQGTLVTVSS
VL: DIQMTQSPASLSASLGETVTIECRASDDLYSTLAWYQQKPGDSPQLLIFDANRLAAGVPSRFSGSGSGTQYSLKINSLQSEDVASYFCQQYNKFPWTFGGGTKLELK
notes: also called chimeric BCU-6B1-G6
In the case of B1, the IC50 in assay [1] was 0.498 nM.

B2: AB014 (Avastin), PR-1545939 (antibody, V domains shown)
VH: EVQLVESGGGLVQPGGSLRLSCAASGYTFTNYGMNWVRQAPGKGLEWVGWINTYTGEPTYAADFKRRFTFSLDTSKSTAYLQMNSLRAEDTAVYYCAKYPHYYGSSHWYFDVWGQGTLVTVSS
VL: DIQMTQSPSSLSASVGDRVTITCSASQDISNYLNWYQQKPGKAPKVLIYFTSSLHSGVPSRFSGSGSGTDFTLTISSLQPEDFATYYCQQYSTVPWTFGQGTKVEIK
notes: Anti-VEGF-A mAb
Turning to B2, in the assay with mouse VEGF (PR-1578904), the binding result is reported as “no binding”.
